Assay results published in patent publication US20080306212A1 (Biogen, published 2008).

target: c-Ret (RET receptor tyrosine kinase) on NB41A3-mRL3 cells (UniProt P35546); assay: cell-based or functional assay
Sequence (P35546 29-1115 limits assumed): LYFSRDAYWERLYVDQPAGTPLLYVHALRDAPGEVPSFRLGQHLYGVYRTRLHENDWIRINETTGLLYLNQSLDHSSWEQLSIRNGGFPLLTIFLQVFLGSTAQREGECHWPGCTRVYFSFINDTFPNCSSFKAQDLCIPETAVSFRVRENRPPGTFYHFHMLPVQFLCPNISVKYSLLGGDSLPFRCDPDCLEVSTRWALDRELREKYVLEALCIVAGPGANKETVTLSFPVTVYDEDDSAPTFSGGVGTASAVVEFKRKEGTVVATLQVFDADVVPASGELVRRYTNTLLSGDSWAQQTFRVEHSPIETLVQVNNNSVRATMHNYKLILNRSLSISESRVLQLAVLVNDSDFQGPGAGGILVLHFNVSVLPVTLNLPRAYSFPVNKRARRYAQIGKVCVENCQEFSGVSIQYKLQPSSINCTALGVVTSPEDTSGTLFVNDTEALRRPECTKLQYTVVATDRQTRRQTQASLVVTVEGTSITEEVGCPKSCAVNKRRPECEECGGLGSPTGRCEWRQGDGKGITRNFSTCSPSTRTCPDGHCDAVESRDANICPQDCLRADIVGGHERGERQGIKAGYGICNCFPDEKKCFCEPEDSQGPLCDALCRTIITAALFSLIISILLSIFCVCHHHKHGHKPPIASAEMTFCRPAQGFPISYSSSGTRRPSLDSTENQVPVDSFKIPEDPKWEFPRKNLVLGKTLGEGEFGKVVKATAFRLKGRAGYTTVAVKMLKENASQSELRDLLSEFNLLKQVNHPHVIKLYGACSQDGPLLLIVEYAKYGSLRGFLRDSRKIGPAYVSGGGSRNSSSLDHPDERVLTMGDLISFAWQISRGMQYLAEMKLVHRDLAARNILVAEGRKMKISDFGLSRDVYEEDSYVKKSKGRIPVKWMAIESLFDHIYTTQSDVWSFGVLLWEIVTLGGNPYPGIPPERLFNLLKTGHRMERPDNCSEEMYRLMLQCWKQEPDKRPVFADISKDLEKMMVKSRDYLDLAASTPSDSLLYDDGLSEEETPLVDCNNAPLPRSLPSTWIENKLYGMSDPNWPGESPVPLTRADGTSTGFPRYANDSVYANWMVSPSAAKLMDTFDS

| KIRA:~ EC50 | KIRA:~ Max Efficacy vs WT | Binder |
| --- | --- | --- |
| 300 pM | 110% | 1 × 20 kDa PEG-NBN104 (CHO) (ligand, one 20 kDa PEG on the amino-terminal amino acid of one chain (Table 8: 1); glycosylated at amino acid 95 of each chain (95, 95)) AAGARGCRLRSQLVPVRALGLGHRSDELVRFRFCSGSCRRARSPHDLSLASLLGAGALRPPPGSRPVSQPCCRPTRYEAVSFMDVNSTWRTVDRLSATACGCLG |
| 700 pM | 90% | NBN104 (CHO) (ligand, glycosylated at amino acid 95 of each chain (Table 8: 95, 95; numbering of SEQ ID NO:1)) AAGARGCRLRSQLVPVRALGLGHRSDELVRFRFCSGSCRRARSPHDLSLASLLGAGALRPPPGSRPVSQPCCRPTRYEAVSFMDVNSTWRTVDRLSATACGCLG |
| 1000 pM | 105% | 2 × 20 kDa PEG-NBN104 (CHO) (ligand, 20 kDa PEG on the amino-terminal amino acid of each chain (Table 8: 1, 1); glycosylated at amino acid 95 of each chain (95, 95)) AAGARGCRLRSQLVPVRALGLGHRSDELVRFRFCSGSCRRARSPHDLSLASLLGAGALRPPPGSRPVSQPCCRPTRYEAVSFMDVNSTWRTVDRLSATACGCLG |

target: T1, c-Ret (RET receptor tyrosine kinase) on NB41A3-mRL3 cells (UniProt P35546 29-1115, limits assumed); assay: cell-based or functional assay
T1 sequence (P35546 29-1115 limits assumed): as the sequence (P35546 29-1115 limits assumed) above

| potency in the KIRA ELISA relative to wild-type NBN113 | Binder |
| --- | --- |
| ~10 fold less potent | 4 × 10 kDa PEG NBN106-N95K (ligand, 10 kDa PEG on the amino terminus and on Lys95 of each chain (Table 8: 1, 1, 95, 95)) ARATDARGCRLRSQLVPVSALGLGHSSDELIRFRFCSGSCRRARSPHDLSLASLLGAGALRSPPGSRPISQPCCRPTRYEAVSFMDVKSTWRTVDHLSATACGCLG |

target: T1, c-Ret (RET receptor tyrosine kinase) on …; assay: cell-based or functional assay; remark: another data set of the same source

| Binder | KIRA:~ EC50 | KIRA:~ Max Efficacy vs WT |
| --- | --- | --- |
| 2 × 10 kDa PEG-NBN (ligand, 10 kDa PEG on the amino-terminal amino acid of each chain (Table 8: 1, 1)) AGTRSSRARATDARGCRLRSQLVPVSALGLGHSSDELIRFRFCSGSCRRARSPHDLSLASLLGAGALRSPPGSRPISQPCCRPTRYEAVSFMDVNSTWRTVDHLSATACGCLG | ~200 pM | ~72% |
| 2 × 20 kDa PEG-NBN (ligand, 20 kDa PEG on the amino-terminal amino acid of each chain (Table 8: 1, 1)) AGTRSSRARATDARGCRLRSQLVPVSALGLGHSSDELIRFRFCSGSCRRARSPHDLSLASLLGAGALRSPPGSRPISQPCCRPTRYEAVSFMDVNSTWRTVDHLSATACGCLG | ~600 pM | ~80% |
| 2 × 5 kDa PEG-NBN (ligand, 5 kDa PEG on the amino-terminal amino acid of each chain (Table 8: PEGylated amino acids 1, 1)) AGTRSSRARATDARGCRLRSQLVPVSALGLGHSSDELIRFRFCSGSCRRARSPHDLSLASLLGAGALRSPPGSRPISQPCCRPTRYEAVSFMDVNSTWRTVDHLSATACGCLG | ~200 pM | ~105% |
| 1 × 20 kDa Branched PEG-NBN (ligand, one 20 kDa branched PEG on the amino-terminal amino acid of one of the two chains (Table 8: 1)) AGTRSSRARATDARGCRLRSQLVPVSALGLGHSSDELIRFRFCSGSCRRARSPHDLSLASLLGAGALRSPPGSRPISQPCCRPTRYEAVSFMDVNSTWRTVDHLSATACGCLG | ~200 pM | ~83% |
| 3 × 10 kDa PEG-WT/N95K-NBN106 (ligand, 10 kDa PEG on the amino terminus and on Lys95 (Table 8, for the dimer: 1, 1, 95); 10 kDa PEG on the amino terminus (Table 8, for the dimer: 1, 1, 95)) chain 1: ARATDARGCRLRSQLVPVSALGLGHSSDELIRFRFCSGSCRRARSPHDLSLASLLGAGALRSPPGSRPISQPCCRPTRYEAVSFMDVNSTWRTVDHLSATACGCLG chain 2: ARATDARGCRLRSQLVPVSALGLGHSSDELIRFRFCSGSCRRARSPHDLSLASLLGAGALRSPPGSRPISQPCCRPTRYEAVSFMDVKSTWRTVDHLSATACGCLG | ~700 pM | ~115% |
| 3 × 10 kDa PEG NBN106-N95K (ligand, three 10 kDa PEG per dimer: both amino termini and one Lys95 (Table 8: 1, 1, 95)) ARATDARGCRLRSQLVPVSALGLGHSSDELIRFRFCSGSCRRARSPHDLSLASLLGAGALRSPPGSRPISQPCCRPTRYEAVSFMDVKSTWRTVDHLSATACGCLG | ~800 pM | ~100% |

The remaining lines, values ahead:

| KIRA:~ EC50 | KIRA:~ Max Efficacy vs WT | Binder |
| --- | --- | --- |
|  | ~100% | wild-type rat neublastin NBN113 (E. coli derived) (ligand) AGTRSSRARATDARGCRLRSQLVPVSALGLGHSSDELIRFRFCSGSCRRARSPHDLSLASLLGAGALRSPPGSRPISQPCCRPTRYEAVSFMDVNSTWRTVDHLSATACGCLG |
| ~1000 pM | ~80% | 4 × 5 kDa PEG NBN106-N95K (ligand, 5 kDa PEG on the amino terminus and on Lys95 of each chain (Table 8: 1, 1, 95, 95)) ARATDARGCRLRSQLVPVSALGLGHSSDELIRFRFCSGSCRRARSPHDLSLASLLGAGALRSPPGSRPISQPCCRPTRYEAVSFMDVKSTWRTVDHLSATACGCLG |
| ~1600 pM | ~90% | 3(,4) × 10 kDa PEG NBN106-N95K (ligand, 10 kDa SPA-PEG at the amino termini and Lys95, average 3.3 PEG moieties per dimer (Table 8: 1, 1, 95 (,95)); mixture of 2, 3 and 4 PEG adducts) ARATDARGCRLRSQLVPVSALGLGHSSDELIRFRFCSGSCRRARSPHDLSLASLLGAGALRSPPGSRPISQPCCRPTRYEAVSFMDVKSTWRTVDHLSATACGCLG |
| ~11000 pM | > 80% | 4 × 10 kDa PEG NBN106-N95K (ligand, 10 kDa PEG on the amino terminus and on Lys95 of each chain (Table 8: 1, 1, 95, 95)) ARATDARGCRLRSQLVPVSALGLGHSSDELIRFRFCSGSCRRARSPHDLSLASLLGAGALRSPPGSRPISQPCCRPTRYEAVSFMDVKSTWRTVDHLSATACGCLG |
